{
  "source": "patent US20250352615A1",
  "about": "“COMPOSITIONS AND METHODS FOR THE MODULATION OF PIEZO1 AND TRPV4” (Duke University, priority 2021, published 2025)",
  "key": {"Piezo1 [1]": {"molecular_target": "T1, Piezo1 (Mus musculus, UniProt E2JF22)", "T1 construct": "endogenous in cells; host or cells: freshly isolated mouse pancreatic acini (WT = Piezo1 fl/fl on a C57BL/6J background)", "experiment": "Mechanical pushing-induced [Ca2+]i in pancreatic acini", "format": "cell-based", "details": "prior treatment with GsMTx4; blunt pipette 5 μm for 1 second", "method": "A borosilicate glass pipette (Sutter Instrument) was pulled using a pipette puller P-87 (Sutter Instruments) and made blunt with an MF-900 Microforge (Narishige). Acini were pushed once with a 2- to 3-μm tip blunt pipette to 5 μm for 1 second using a micromanipulator (World Precision Instruments).\nCalcium imaging in pancreatic acini was performed as previously described. The chemicals used in calcium imaging experiments included the following: Yoda1 (Tocris; 5586), GsMTx4 (Abcam; ab141871), 5′,6′-EET (Santa Cruz Biotechnology; sc-221066), AA (Millipore Sigma; A3611), HC067047 (Tocris; 4100), GSK1016790A (Millipore Sigma; G0798), RN1734 (Tocris; 3746), AACOCF3 (Tocris; 1462), YM26734 (Tocris; 2522), GF109203X (Tocris; 0741), and CCK8 (Sigma-Aldrich)."}, "pancreatic acini [2]": {"system": "pancreatic acini", "experiment": "Mitochondrial depolarization in pancreatic acini (TMRE)", "format": "cell-based, mouse", "details": "GsMTx4 5 μM; Yoda1 50 μM; WT cells", "method": "Live-cell mitochondrial depolarization was analyzed using the mitochondrial labeling dye, TMRE. Isolated acini were plated on a thin-layered, Matrigel-coated, glass-bottom culture plate with DMEM/F12 and 10% FBS media and placed in a CO2 incubator for 1 hr at 37° C. After 1 hr, the acini were incubated with TMRE (200 nM) in the bath buffer containing 140 mM NaCl, 4.7 mM KCl, 2.0 CaCl2, 1 mM MgCl2, 10 mM HEPES, and 10 mM glucose (pH adjusted to 7.4 with NaOH) for 30 minutes. The TMRE dye was washed and replaced with fresh bath buffer. The images were captured with a Zeiss Axio observer Z1 microscope with MetaMorph software (Molecular Devices) at intervals of 600 ms. TMRE was excited at 540-600 nm and emission collected at 585-675 nm. Carbonyl cyanide 4-(trifluoromethoxy) phenylhydrazone (FCCP), which uncouples the oxidative phosphorylation process and depolarizes mitochondria, was used as a positive control. A maximum of 2 mitochondrial puncta were taken per acinar cell."}, "pancreatic acini [3]": {"system": "pancreatic acini", "experiment": "Trypsinogen activation in pancreatic acini (BZiPAR)", "format": "cell-based, mouse", "details": "GsMTx4 5 μM", "method": "To visualize Piezo1-induced trypsinogen activation, acini were loaded with active trypsin enzyme substrate BZiPAR (10 μM). Na-HEPES buffer with 2 mM Ca^2+ was used during imaging. A Zeiss Axio observer Z1 with a high-sensitivity EMCCD camera with a ×40/0.75 EC-Plan-NeoFluar DIC objective was used to capture the Z-stack images with stack thickness of 3 μm at an interval of 12 seconds. The BZiPAR fluorescent wavelength Ex/Em was 498/521 nm. BZiPAR was excited at 470-510 nm and emission collected at 495-550 nm. The captured images were analyzed with MetaMorph software (Molecular Devices)."}, "Piezo1 [4]": {"molecular_target": "T1, Piezo1", "experiment": "Calcium imaging of Piezo1-mediated [Ca2+]i in mouse PSCs", "format": "cell-based", "details": "GsMTx4 5 μM", "method": "(§1) Mouse and human PSCs were isolated using collagenase digestion. Modified Krebs Henseleit Buffer (KHB) solution (100 mL) was prepared as previously described by Romac et al., Nat. Commun. 9(1):1715 (2018). Pancreatic tissue was digested with 2 mg of collagenase NB 8 (SERVA, catalog 17456) dissolved in 10 mL of modified KHB solution containing 1 mg soybean trypsin inhibitor (SBTI 1-S; Millipore Sigma, catalog T9003) and 20 mg BSA (Thermo Fisher Scientific; BP1600-100). Digestion solution (5 mL) was used to inflate the pancreas. Pancreas with 5 mL of digestion solution was incubated in a shaking water bath for 10 minutes at 37° C. The solution was then discarded. The pancreas tissue was cut into small pieces and digested with fresh 5 mL digestion buffer. Tissue was incubated in a shaking water bath for 40 minutes at 37° C. The cells were then separated from tissue by pipetting up-down with a 10 mL pipette and passed sequentially through a 70 μm and a 40 μm cell strainer. The filtrate was centrifuged at 150×g for 3 minutes at room temperature. The cells were washed with 10 mL Leibovitz's media (Thermo Fisher Scientific, catalog 11415-064), passed through a 20 μm filter, and centrifuged at 80×g for 3 minutes at room temperature. The supernate was removed, and isolated stellate cells were plated on a thin-layered Matrigel-coated glass bottom culture plate (MatTek, P35G-0-14-C). Before plating the cells, Matrigel solution (Corning, catalog 354234) at a ratio of 1.5:100 DMEM/F12 (Thermo Fisher Scientific, catalog 11330-032) was poured onto the culture plate and incubated for 2 hr at 37° C. to form a thin layer of Matrigel coating. Matrigel mixture was removed, and the plate was washed with PBS before cells were plated. Cell culture media, DMEM/F12 with 5% FBS was used for mouse stellate cells. Fresh, human pancreatic tissue was digested with collagenase as described above with modifications. Collagenase (2.5 mg) in 10 mL of modified KHB solution was used for digestion. The digested tissues were filtered through a 100 μm cell strainer. The cells were cultured with DMEM/F12 with 10% FBS in a Matrigel-coated plate. After 24 hr, the cell media was replaced with fresh media to remove unattached and dead cells. After 2 days, cells were immunostained for GFAP and used for experiments. Perinuclear fat droplets were stained with BODIPY 493/503 (4,4-Difluoro-1,3,5,7,8-Pentamethyl-4-Bora-3a,4a-Diaza-s-Indacene; Invitrogen, catalog D3922) to confirm stellate cell quiescence. The cell viability following Yoda1 treatment was analyzed using the Live/Dead cell imaging kit (Thermo Fisher Scientific, catalog R37601). RNAs were isolated using the RiboPure Kit (Invitrogen, catalog AM1924) according to manufacturer's instructions.\n(§2) Fluid shear stress and mechanical pushing applied to stellate cells were achieved as previously described by Wang et al., J. Clin. Invest. 126(12): 4527-4536 (2016). Parallel-plate fluid flow chambers (μ-Slide I 0.4 Luer, or μ-Slide I 0.2 Luer from Ibidi) were used for fluid shear stress experiments. The fluid shear stress (T) was calculated using the formula: τ=η×[…] φ for μ-Slide I 0.4 Luer and τ=η×330.4 φ for μ-Slide I 0.2 Luer, where r represents viscosity of the medium and φ represents flow rate (according to the manufacturer's instructions, Ibidi). Mechanical pushing was achieved by applying a blunt borosilicate glass pipette once to the cell membrane with a deflection of 2-3 μm for 1 second using a micromanipulator (World Precision Instruments).\nCalcium 6-QF (Molecular Devices) dye was used for live-cell calcium imaging as described by Romac et al., Nat. Commun. 9(1):1715 (2018). Cells were imaged in HBSS buffer with 2 mM Ca^2+. Faintly and highly fluorescent loaded cells were excluded from analysis. […]"}, "Piezo1 [5]": {"molecular_target": "T2, Piezo1 (Homo sapiens, UniProt Q92508)", "T2 construct": "Fresh, human pancreatic tissue was digested with collagenase as described above with modifications; endogenous in cells; host or cells: primary human pancreatic stellate cells from fresh human pancreatic tissue", "experiment": "Calcium imaging of Piezo1-mediated [Ca2+]i in human PSCs", "format": "cell-based", "details": "GsMTx4 5 μM, human PSCs", "method": "Mouse and human PSCs were isolated using collagenase digestion. Modified Krebs Henseleit Buffer (KHB) solution (100 mL) was prepared as previously described by Romac et al., Nat. Commun. 9(1):1715 (2018). Pancreatic tissue was digested with 2 mg of collagenase NB 8 (SERVA, catalog 17456) dissolved in 10 mL of modified KHB solution containing 1 mg soybean trypsin inhibitor (SBTI 1-S; Millipore Sigma, catalog T9003) and 20 mg BSA (Thermo Fisher Scientific; BP1600-100). Digestion solution (5 mL) was used to inflate the pancreas. Pancreas with 5 mL of digestion solution was incubated in a shaking water bath for 10 minutes at 37° C. The solution was then discarded. The pancreas tissue was cut into small pieces and digested with fresh 5 mL digestion buffer. Tissue was incubated in a shaking water bath for 40 minutes at 37° C. The cells were then separated from tissue by pipetting up-down with a 10 mL pipette and passed sequentially through a 70 μm and a 40 μm cell strainer. The filtrate was centrifuged at 150×g for 3 minutes at room temperature. The cells were washed with 10 mL Leibovitz's media (Thermo Fisher Scientific, catalog 11415-064), passed through a 20 μm filter, and centrifuged at 80×g for 3 minutes at room temperature. The supernate was removed, and isolated stellate cells were plated on a thin-layered Matrigel-coated glass bottom culture plate (MatTek, P35G-0-14-C). […] The cell viability following Yoda1 treatment was analyzed using the Live/Dead cell imaging kit (Thermo Fisher Scientific, catalog R37601). […]\nFluid shear stress and mechanical pushing applied to stellate cells were achieved as previously described by Wang et al., J. Clin. Invest. […] The fluid shear stress (T) was calculated using the formula: τ=η×[…] φ for μ-Slide I 0.4 Luer and τ=η×330.4 φ for μ-Slide I 0.2 Luer, where r represents viscosity of the medium and φ represents flow rate (according to the manufacturer's instructions, Ibidi). […]"}, "human PSCs": {"system": "human PSCs", "experiment": "Human PSC activation and fibrogenic response (fat droplets, cell shape, ECM mRNA and immunostaining)", "format": "cell-based", "details": "GsMTx4 5 μM, 12 or 25 dyne/cm^2 for 10 minutes", "method": "as §1, §2\nMouse and human PSCs were washed with PBS (pH 7.4) and fixed with 4% paraformaldehyde for 10 minutes at room temperature. The fixed cells were treated with 0.1% Triton X-100. […]"}, "Piezo1 [6]": {"molecular_target": "T1, Piezo1", "details": "pancreatic acini; recently reported; cited from earlier work"}},
  "data": [
    {"substance": "GsMTx4 (GCLEFWWKCNPNDDKCCRPKLKCSKLFKLCNFSF; HELM PEPTIDE1{G.C.L.E.F.W.W.K.C.N.P.N.D.D.K.C.C.R.P.K.L.K.C.S.K.L.F.K.L.C.N.F.S.F.[am]}$PEPTIDE1,PEPTIDE1,16:R3-30:R3|PEPTIDE1,PEPTIDE1,2:R3-17:R3|PEPTIDE1,PEPTIDE1,9:R3-23:R3$$$V2.0; N-terminus assumed; SMILES CC(C)C[C@@H]1NC(=O)[C@@H](NC(=O)CN)CSSC[C@@H]2NC(=O)[C@@H]3CSSC[C@@H](C(=O)N[C@@H](CC(N)=O)C(=O)N[C@@H](Cc4ccccc4)C(=O)N[C@@H](CO)C(=O)N[C@@H](Cc4ccccc4)C(N)=O)NC(=O)[C@H](CC(C)C)NC(=O)[C@H](CCCCN)NC(=O)[C@H](Cc4ccccc4)NC(=O)[C@H](CC(C)C)NC(=O)[C@H](CCCCN)NC(=O)[C@H](CO)NC(=O)[C@H](CSSC[C@H](NC(=O)[C@H](CCCCN)NC(=O)[C@H](Cc4c[nH]c5ccccc45)NC(=O)[C@H](Cc4c[nH]c5ccccc45)NC(=O)[C@H](Cc4ccccc4)NC(=O)[C@H](CCC(=O)O)NC1=O)C(=O)N[C@@H](CC(N)=O)C(=O)N1CCC[C@H]1C(=O)N[C@@H](CC(N)=O)C(=O)N[C@@H](CC(=O)O)C(=O)N[C@@H](CC(=O)O)C(=O)N[C@@H](CCCCN)C(=O)N3)NC(=O)[C@H](CCCCN)NC(=O)[C@H](CC(C)C)NC(=O)[C@H](CCCCN)NC(=O)[C@@H]1CCCN1C(=O)[C@H](CCCNC(=N)N)NC2=O; UniProt Q7YT39 47-80, looked up)", "values": [
      {"measurement": "effect on mechanical pushing-induced transient [Ca2+]i rise", "setting": "Piezo1 [1]", "result": "completely blocked"},
      {"measurement": "effect on Yoda1-induced mitochondrial depolarization", "setting": "pancreatic acini [2]", "result": "blocked the Yoda1-induced mitochondrial depolarization"},
      {"measurement": "effect on Yoda1-induced trypsin activation", "setting": "pancreatic acini [3]", "result": "blocked the Yoda1-induced trypsin activation"},
      {"measurement": "effect on Yoda1-induced calcium rise", "setting": "Piezo1 [4]; mouse PSCs", "result": "blocked the calcium rise produced by Yoda1"},
      {"measurement": "effect on shear stress-induced transient [Ca2+]i elevation in TRPV4-null PSCs", "setting": "Piezo1 [4]; 12 dyne/cm^2 for 1 minute", "result": "blocked the effects of high shear stress (12 dyne/cm^2 for 1 minute) on the transient [Ca^2+]i elevation"},
      {"measurement": "effect on Yoda1 (25 μM)-mediated [Ca2+]i rise", "setting": "Piezo1 [5]", "result": "sensitive to GsMTx4 blockade"},
      {"measurement": "effect on fluid shear stress-induced sustained [Ca2+]i increase", "setting": "Piezo1 [5]; 12 dyne/cm^2 for 1 minute", "result": "blocked"},
      {"measurement": "effect on shear stress-mediated pathological changes (fat droplet loss, fibronectin, collagen type I)", "setting": "human PSCs", "result": "attenuated the shear stress-mediated pathological changes"},
      {"measurement": "effect on Yoda1-mediated [Ca2+]i rise", "setting": "Piezo1 [6]", "result": "inhibits the Yoda1-mediated [Ca^2+]i rise"}
    ]}
  ]
}
